# Reference: patent US6642353B1, “Peptide ligands for the erythropoietin receptor” (Chugai Seiyaku Kabushiki Kaisha, priority 2000, dated 2003)
# Positions of bridges follow the written chain, without caps; N, C: chain ends. Residues, ends and D or L forms follow the SMILES beside them.
# T1: chimeric Ig-EPOR protein (human; murine, UniProt P19235 25-250)
# T1 construct: extracellular domain; Secreted from COS-7 cells transfected with pcDNA3-IgG1-EPOR; major species about 59 kDa; also called IgG-EPOR; chimeric receptor; not shown: hinge region, CH2 and CH3 domains of the murine IgG1 heavy chain
# T1 sequence (looked up): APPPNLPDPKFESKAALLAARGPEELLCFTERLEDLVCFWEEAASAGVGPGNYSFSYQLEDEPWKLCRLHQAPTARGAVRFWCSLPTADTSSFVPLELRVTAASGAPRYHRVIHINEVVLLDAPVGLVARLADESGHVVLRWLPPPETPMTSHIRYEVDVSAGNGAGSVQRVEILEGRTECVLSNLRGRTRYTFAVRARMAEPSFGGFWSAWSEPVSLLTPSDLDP
# Biological target: T1, chimeric Ig-EPOR protein
# Experiment: phage ELISA, relative to ERB1
# Details: not given
# Experimental: (§1) To better characterize the phage isolates having binding specificity for the EPOR, we compared the relative affinities of the binding clones presented in FIG. 4, using a phage ELISA procedure. Phage stocks of the binding clones were titered in triplicate to accurately determine the concentration of pfu/ml for each lysate. Different isolates were then assayed by ELISA using normalized phage concentrations so that all clones were tested using equivalent numbers of phage.
row,Molecule,"relative affinity (Rel. Aff., ERB1 = 1.0)"
1,DLNVGCPGYVGHCADWLGDEYPVHPNPEVPQTLNLKPH (not shown: M13 phage pIII coat protein) [phage clone N3],< 0.1
2,DFEGSLREWDGDWPEWLRDEYARPSYPNPHKANQKPP (not shown: M13 phage pIII coat protein) [phage clone N10],< 0.1
3,NSDVTRRGWADHWREWNWDEYASTPTHPASHSSYLNPP (not shown: M13 phage pIII coat protein) [phage clone N5],< 0.1
4,GWAGCRSGGAGQCKEGAGDEYAENPSYPVPPRKHLNRL (not shown: M13 phage pIII coat protein) [phage clone N2],< 0.1
5,ELDMLRGGGVGQSKESLRDEYDHKTSTPVPPNQKLPPP (not shown: M13 phage pIII coat protein) [phage clone N4],< 0.1
6,DVEVGRRACVGYCQEFLRDEYTATPSYPDKHSNYLNPP (not shown: M13 phage pIII coat protein) [phage clone N12],< 0.1
7,EFVVWPRGWVGHCKGCRVDEYSGDPSNLEAQTHDMNFQ (not shown: M13 phage pIII coat protein) [phage clone N7],< 0.1
8,DIAVCRGGCVGLCEEGLRDEYACNVKKPVPHSYKLNTP (not shown: M13 phage pIII coat protein) [phage clone N13],< 0.1
9,SVDVCNQGGVGRCNDGLGDEYASKPSYQEAPRYNPNLR (not shown: M13 phage pIII coat protein) [phage clone N9],< 0.1
10,ALDVGRWDGVGHCKGCLKDEYTTLDSKNNPQISQVSPT (not shown: M13 phage pIII coat protein) [phage clone N11],< 0.1
11,GLNICRPGWVGHCNDSLRDEYATNPRTPGPLSYNLQPT (not shown: M13 phage pIII coat protein) [phage clone N8],< 0.1
12,EWVYSRQSWGGQWKDGVRDEYTMTPGDPVANKYSLMTP (not shown: M13 phage pIII coat protein) [phage clone N6],< 0.1
13,RLEDGDEGRVWHSSDLLSDEYASTPSYPLTPNYYEYPP (not shown: M13 phage pIII coat protein) [phage clone N1],< 0.1

# Biological target: T2, chimeric Ig-EPOR protein (Homo sapiens, UniProt P19235)
# T2 construct: a fusion protein having domains corresponding to murine IgG1 and the extracellular domain (ECD) of the human EPOR; made in house; secreted into the medium
# Experiment: peptide inhibition ELISA (binding of Ig-EPOR to EPO-coated plates)
# Details: not given
# Experimental: The wells were washed three times with PBS containing 0.05% (v/v) TWEEN® 20 non-ionic detergent, and then blocked with 1% (w/v) BSA and 0.05% TWEEN® 20 in PBS (blocking buffer) to prevent non-specific binding. Excess blocking buffer was removed by washing once. Culture media was serially diluted in blocking buffer, and 50 μl from each dilution was added to the coated and blocked wells. Wells receiving undiluted media served as a control. A set of uncoated wells also received the diluted cell-free media. Plates were then incubated for 2 hours at room temperature, and washed three times as described above. After removing unbound chimeric receptor by washing, bound chimeric protein was assayed using 100 μl of the HRP labeled anti-murine IgG antibody, substantially as described above. Color development was initiated by addition of 100 μl of the TMB peroxidase substrate, and the extent of the peroxidase reaction measured spectrophotometrically at 450 nm and 650 nm, as described above.
# Synthetic peptides having the sequences […] (SEQ ID NO:81), and […] (SEQ ID NO:82) were synthesized in the cyclic (disulfide-bonded) form using standard procedures (Peninsula Laboratories, Belmont, Calif.). The 18-mer peptide sequences were derived from the B7 and B8 clones, and the peptides are referred to herein as “ERB1-7” (SEQ ID NO:81) and “ERB1-8” (SEQ ID NO:82), respectively. The structures of the two purified peptides, each being greater than 95% pure as judged by HPLC, were confirmed by mass spectrometry. […] Such synthetic peptides are EPO mimetics.
# Synthetic peptides corresponding to the sequence of ERB1-7, but missing either one, two, three or four N-terminal amino acids were tested in the peptide inhibition ELISA protocol. The following peptides were synthesized and tested substantially as described in Example 8: 18-mer peptide ERB1-7, consisting of […] (SEQ ID NO:81);
row,Molecule,IC50
1,CC(C)[C@@H]1NC(=O)[C@H](Cc2c[nH]c3ccccc23)NC(=O)CNC(=O)[C@H](CCCNC(=N)N)NC(=O)[C@H](CCCNC(=N)N)NC(=O)[C@@H](NC(=O)CNC(=O)[C@H](CCC(=O)O)NC(=O)[C@H](CCCNC(=N)N)NC(=O)[C@@H](N)CC(=O)O)CSSC[C@@H](C(=O)N[C@@H](CCCCN)C(=O)N[C@@H](C)C(=O)N[C@@H](Cc2c[nH]c3ccccc23)C(=O)N[C@@H](Cc2ccccc2)C(=O)N[C@@H](CC(N)=O)C(=O)O)NC(=O)[C@H](CCC(N)=O)NC(=O)CNC1=O [ERB1-7] (H-DREGCRRGWVGQCKAWFN-OH; disulfide 5-13; N-terminus and C-terminus assumed),~45 nM
2,CC(C)C[C@H](NC(=O)[C@H](Cc1c[nH]c2ccccc12)NC(=O)[C@H](Cc1ccc(O)cc1)NC(=O)[C@H](CC(N)=O)NC(=O)[C@@H]1CSSC[C@H](NC(=O)[C@H](C)NC(=O)[C@H](CCC(=O)O)NC(=O)[C@@H](NC(=O)[C@@H](N)CC(=O)O)C(C)C)C(=O)NCC(=O)NCC(=O)NCC(=O)N[C@@H](Cc2c[nH]c3ccccc23)C(=O)N[C@@H](C(C)C)C(=O)NCC(=O)N[C@@H](Cc2c[nH]cn2)C(=O)N1)C(=O)N[C@@H](CCCNC(=N)N)C(=O)O [ERB1-8] (H-DVEACGGGWVGHCNYWLR-OH; disulfide 5-13; N-terminus and C-terminus assumed),~45 nM

# Same assay, conditions: N-terminal truncations of ERB1-7
row,Molecule,EPOR binding activity
1,CRRGWVGQCKAWFN [7N-4],abolished EPOR binding activity
2,GCRRGWVGQCKAWFN [7N-3],abolished EPOR binding activity

# Biological target: T1, chimeric Ig-EPOR protein
# Experiment: phage ELISA with normalized phage concentrations
# Details: not given
# Experimental: as §1
row,Molecule,fold affinity relative to the parent ERB1 clone
1,DVEACGGGWVGHCNYWLRDEYASKPIKQVPPGNHNQPS (not shown: M13 phage pIII coat protein) [phage clone B8],~20 fold
2,DREGCRRGWVGQCKAWFNDEYAKPPKKPFRNSYSLGPA (not shown: M13 phage pIII coat protein) [phage clone B7],~20 fold

# Biological target: T1, chimeric Ig-EPOR protein
# Experiment: biopanning of the ERB1 evolved library with Ig-EPOR (FIG. 4)
# Details: not given
# Experimental: The beads were washed three times in TBST (Tris buffered saline containing 0.1% (v/v) TWEEN® 20) and then suspended in 1 ml blocking medium (TBS SUPERBLOCK®). Phage in 100 μl aliquots containing about 1 ×10^10 plaque forming units (pfu) were added to the beads and the mixtures rotated gently for 2 hrs at room temperature. After washing the beads five times in TBST, phage were eluted with 300 μl of 50 mM glycine buffer (pH 2.2) for 10 min at room temperature. Eluted phage were immediately neutralized with 8 μl 2M Tris base that had not been pH-adjusted, mixed and stored at 4° C. Phage isolated by biopanning were amplified by mixing equal volumes of eluted phage and an overnight culture of E. coli strain JS5, diluting the mixture in 20 ml 2xYT containing tetracycline (12.0 μg/ml), and incubating overnight with shaking at 37° C. The resulting phage lysates were cleared of cell debris by centrifugation for 5 min in a microfuge, and 100 μl of the resulting supernatant lysate was used for a subsequent round of biopanning. All phage titering was carried out using JS5 bacteria plated on 2xYT top agar and agar plates.
# Several random phage clones also were isolated from the evolved library, to represent non-binding clones.
row,Molecule,binding result
1,LLQMCSPGWVGHCNDWPRDEYANNPPNPVVDRQALTPP (not shown: M13 phage pIII coat protein) [phage clone B17],binds
2,DFEDCQGGWVGHCNDWLGDEYARHPRYGATQTLSVNRH (not shown: M13 phage pIII coat protein) [phage clone B9],binds
3,EGEVCLPGWVGHCKYWLMDEYANIPRNPTPRSNELKPP (not shown: M13 phage pIII coat protein) [phage clone B13],binds
4,DLAGCRRGWVGHCSEWLRDEYTSNPRYPVAPSYRLQPP (not shown: M13 phage pIII coat protein) [phage clone B20],binds
5,AKVVCRNGWVGHCSAWLTDEYESNPNTRIPNTFDMKTP (not shown: M13 phage pIII coat protein) [phage clone B21],binds
6,DVHECRPGWVGHCKDWLSDEYASNRRSPEPHRNYPIPP (not shown: M13 phage pIII coat protein) [phage clone B1],binds
7,QVDTCTRGWVGHCNAWMGDEYAKTPGLPMPQSDYLKPR (not shown: M13 phage pIII coat protein) [phage clone B15],binds
8,YSDVCRRGWVGHCEDWLGDEYSSQPSYALPHSTSLNPR (not shown: M13 phage pIII coat protein) [phage clone B18],binds
9,DVEVCRGGWVGHCNAWLRDEYNRQPKKPVQQQVVYSTR (not shown: M13 phage pIII coat protein) [phage clone B16],binds
10,SLEPCRGGWVGHCNEWQRDEYAINPKWPNAPIEDPNPL (not shown: M13 phage pIII coat protein) [phage clone B6],binds
11,DLEVCRGGWVGHCKDWIWDEYARNPRYPDPQRKEVKSP (not shown: M13 phage pIII coat protein) [phage clone B10],binds
12,GKEVCRRGWVGHCQEWPMDEYTRNPSHPVPHNSRHKTP (not shown: M13 phage pIII coat protein) [phage clone B3],binds
13,DLEGCRLGWVGHCNVWGGDEYTKRTSHSVPPSHKSKLL (not shown: M13 phage pIII coat protein) [phage clone B19],binds
